# Reference: publication PMC4557121 (2015)
# B1: A2 [not stated] / purified TRB3 protein [not stated] (parent complex)
# chain 1: GGWLTRLLQTK
# chain 2: MRATPLAAPAGSLSRKKRLELDDNLDTERPVQKRARSGPQPRLPPCLLPLSPPTAPDRATAVATASRLGPYVLLEPEEGGRAYQALHCPTGTEYTCKVYPVQEALAVLEPYARLPPHKHVARPTEVLAGTQLLYAFFTRTHGDMHSLVRSRHRIPEPEAAVLFRQMATALAHCHQHGLVLRDLKLCRFVFADRERKKLVLENLEDSCVLTGPDDSLWDKHACPAYVGPEILSSRASYSGKAADVWSLGVALFTMLAGHYPFQDSEPVLLFGKIRRGAYALPAGLSAPARCLVRCLLRREPAERLTATGILLHPWLRQDPMPLAPTRSHLWEAAQVVPDGLGLDEAREEEGDREVVLYG
# Variants of: B1
# Assay: SPR; TRB3 immobilized on CM5 sensor chips
row,Variant,Kd
1,chain 1 GAWLTRLLQTK,0.402 µM
2,chain 1 GGWLTRLLQTA,0.0731 µM
3,chain 1 GGWLARLLQTK,0.11 µM
4,chain 1 GGWLTRLLATK,35.6 µM
5,chain 1 AGWLTRLLQTK,1.64 µM

# Continued, values first:
row,Kd,Variant
1,0.381 µM,chain 1 GGWLTRLLQAK
2,4.32 µM,chain 1 GGWATRLLQTK
3,0.000142 µM,chain 1 GGWLTALLQTK
4,3.59 µM,chain 1 GGALTRLLQTK
5,11.8 µM,chain 1 GGWLTRALQTK
